B1: Recombinant His-Bem1p (natural protein, yeast, UniProt P29366 1-551, looked up)
chain: MLKNFKLSKRDSNGSKGRITSADISTPSHDNGSVIKHIKTVPVRYLSSSSTPVKSQRDSSPKNRHNSKDITSPEKVIKAKYSYQAQTSKELSFMEGEFFYVSGDEKDWYKASNPSTGKEGVVPKTYFEVFDRTKPSSVNGSNSSSRKVTNDSLNMGSLYAIVLYDFKAEKADELTTYVGENLFICAHHNCEWFIAKPIGRLGGPGLVPVGFVSIIDIATGYATGNDVIEDIKSVNLPTVQEWKSNIARYKASNISLGSVEQQQQQSITKPQNKSAKLVDGELLVKASVESFGLEDEKYWFLVCCELSNGKTRQLKRYYQDFYDLQVQLLDAFPAEAGKLRDAGGQWSKRIMPYIPGPVPYVTNSITKKRKEDLNIYVADLVNLPDYISRSEMVHSLFVVLNNGFDREFERDENQNNIKTLQENDTATFATASQTSNFASTNQDNTLTGEDLKLNKKLSDLSLSGSKQAPAQSTSGLKTTKIKFYYKDDIFALMLKGDTTYKELRSKIAPRIDTDNFKLQTKLFDGSGEEIKTDSQVSNIIQAKLKISVHDI
B2: Recombinant His-GIV-CT (C terminus of GIV/Girdin), wild type (domain or fragment)
chain: SETLESRHHKIKTGSPGSEVVTLQQFLEESNKLTSVQIKSSSQENLLDEVMKSLSVSSDFLGKDKPVSCGLARSVSGKTPGDFYDRRTTKPEFLRPGPRKTEDTYFISSAGKPTPGTQGKIKLVKESSLSRQSKDSNPYATLPRASSVISTAEGTTRRTSIHDFLTKDSRLPISVDSPPAAADSNTTAASNVDKVQESRNSKSRSREQQSS

What was measured:
[1] = biological target: GST-Exo70p (yeast Exo70) (yeast, UniProt P19658 1-623); assay: pull-down
[2] = biological target: GST-hExo70 (human Exo70) (human, UniProt Q9UPT5 1-735); assay: pull-down
Sequence of GST-hExo70 (human Exo70) (Q9UPT5 whole entry): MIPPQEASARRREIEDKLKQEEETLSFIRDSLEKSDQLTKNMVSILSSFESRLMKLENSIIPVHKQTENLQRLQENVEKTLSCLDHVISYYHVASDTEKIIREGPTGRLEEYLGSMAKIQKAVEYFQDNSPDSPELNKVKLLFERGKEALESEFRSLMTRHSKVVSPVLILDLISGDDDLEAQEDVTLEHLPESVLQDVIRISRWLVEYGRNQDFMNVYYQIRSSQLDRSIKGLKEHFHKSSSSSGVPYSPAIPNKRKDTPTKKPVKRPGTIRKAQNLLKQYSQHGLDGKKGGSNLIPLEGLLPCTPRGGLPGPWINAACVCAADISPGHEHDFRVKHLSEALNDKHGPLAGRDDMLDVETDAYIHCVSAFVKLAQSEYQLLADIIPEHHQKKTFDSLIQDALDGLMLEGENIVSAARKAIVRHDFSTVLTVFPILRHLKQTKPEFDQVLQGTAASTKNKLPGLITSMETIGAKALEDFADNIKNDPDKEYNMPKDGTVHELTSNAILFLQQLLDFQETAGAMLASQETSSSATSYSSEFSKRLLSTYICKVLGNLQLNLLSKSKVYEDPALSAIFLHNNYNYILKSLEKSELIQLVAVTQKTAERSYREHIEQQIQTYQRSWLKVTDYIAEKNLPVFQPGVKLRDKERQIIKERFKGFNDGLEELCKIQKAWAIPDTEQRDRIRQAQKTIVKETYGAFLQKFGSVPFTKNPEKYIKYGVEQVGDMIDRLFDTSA

Sequence of GST-Exo70p (yeast Exo70) (P19658 whole entry): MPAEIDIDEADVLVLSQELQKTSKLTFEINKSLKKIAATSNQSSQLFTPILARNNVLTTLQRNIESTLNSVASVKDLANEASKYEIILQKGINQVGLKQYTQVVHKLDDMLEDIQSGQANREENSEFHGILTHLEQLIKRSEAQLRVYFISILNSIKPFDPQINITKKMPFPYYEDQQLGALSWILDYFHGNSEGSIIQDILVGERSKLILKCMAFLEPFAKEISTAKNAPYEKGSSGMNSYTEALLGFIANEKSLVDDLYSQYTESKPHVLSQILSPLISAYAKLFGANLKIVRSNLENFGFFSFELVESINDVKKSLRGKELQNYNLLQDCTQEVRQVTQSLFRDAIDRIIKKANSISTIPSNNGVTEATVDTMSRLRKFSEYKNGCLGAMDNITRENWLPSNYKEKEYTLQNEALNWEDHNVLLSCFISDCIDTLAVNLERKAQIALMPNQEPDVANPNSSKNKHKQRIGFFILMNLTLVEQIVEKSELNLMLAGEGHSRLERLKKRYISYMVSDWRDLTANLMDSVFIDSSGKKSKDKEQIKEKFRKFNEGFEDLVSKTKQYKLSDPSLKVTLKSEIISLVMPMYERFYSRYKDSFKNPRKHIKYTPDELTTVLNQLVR

Binder | fold binding against human Exo70 [1] | fold binding against yeast Exo70p [2]
B1 | 2 fold | –
B2 | – | 4 fold

Source: article PMC7322189 (iScience, 2020)
